Results on one substance are retold here after US11732043.

The target in assay [1] is human LAG-3 (huLAG-3), full length, expressed on the cell surface (human) (UniProt P18627). The experiment in a line: method of determination not stated; legend of the FACS binding figure (293FF-LAG-3 cells, activated human T-cells).
Assay [2] has the same target.
Assay [3] has the same target. The source holds these as a separate data set.
For assay [4] the target is unchanged. Nature of the assay: FACS titration on activated human T cells, detection with PE-labelled anti-IgG F(ab')2 [right panel Activated T cells].

A word on the Kd: it is the concentration at which binding is half-saturated. As a reminder, the EC50 (read off the curve) is the concentration needed to bring the measured effect to its halfway point.

Where two headings read alike, the source gives them in different places.

Sequence of human LAG-3 (huLAG-3), full length, expressed on the cell surface (human) (P18627 23-525): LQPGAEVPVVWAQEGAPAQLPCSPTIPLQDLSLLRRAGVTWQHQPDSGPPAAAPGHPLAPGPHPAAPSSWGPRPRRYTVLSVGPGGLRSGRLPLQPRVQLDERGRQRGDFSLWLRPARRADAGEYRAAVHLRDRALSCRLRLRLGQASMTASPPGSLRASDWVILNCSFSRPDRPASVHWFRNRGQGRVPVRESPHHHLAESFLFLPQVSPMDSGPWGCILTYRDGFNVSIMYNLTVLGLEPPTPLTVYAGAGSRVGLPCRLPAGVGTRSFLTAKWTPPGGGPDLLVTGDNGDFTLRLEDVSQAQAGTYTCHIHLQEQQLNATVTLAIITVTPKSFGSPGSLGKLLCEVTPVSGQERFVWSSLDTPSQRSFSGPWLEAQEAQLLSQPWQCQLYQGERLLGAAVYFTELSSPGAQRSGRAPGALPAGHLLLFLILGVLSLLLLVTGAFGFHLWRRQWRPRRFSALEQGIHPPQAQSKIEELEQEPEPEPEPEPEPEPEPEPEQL

“PG7431, anti-LAG-3 antibody 25F7 produced in a human IgG1 format” had a Kd in assay [1] of 0.2 nM. Moreover, the EC50 (read off the curve) in assay [2] was determined as 0.1 mg/L; in assay [3], 0.1 mg/L; in assay [4] it was 0.04 mg/L.
